Assay results reported in article PMC7655986.

Molecular target: T1, recombinant Fc-construct of the Dsg2 extracellular domain, Q14126
T1 chain: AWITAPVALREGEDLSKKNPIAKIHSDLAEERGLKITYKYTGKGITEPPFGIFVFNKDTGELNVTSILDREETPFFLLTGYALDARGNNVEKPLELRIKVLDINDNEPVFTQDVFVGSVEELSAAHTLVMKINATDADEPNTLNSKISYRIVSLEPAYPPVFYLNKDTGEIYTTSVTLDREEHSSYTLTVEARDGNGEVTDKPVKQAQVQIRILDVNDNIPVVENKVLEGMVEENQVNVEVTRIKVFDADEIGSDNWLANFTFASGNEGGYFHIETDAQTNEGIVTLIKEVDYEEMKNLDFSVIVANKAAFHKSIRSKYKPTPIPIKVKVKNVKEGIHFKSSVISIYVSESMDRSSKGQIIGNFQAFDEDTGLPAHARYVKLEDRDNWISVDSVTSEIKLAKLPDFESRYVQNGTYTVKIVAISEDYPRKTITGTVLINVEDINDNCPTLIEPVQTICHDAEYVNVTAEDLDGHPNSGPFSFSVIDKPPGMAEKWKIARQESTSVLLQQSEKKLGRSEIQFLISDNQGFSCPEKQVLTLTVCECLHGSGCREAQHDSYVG
Experiment: atomic force microscopy (cell-free single-molecule force measurements); Dsg-Fc constructs (0.15 mg/ml) linked by a PEG linker to the cantilever tip and to mica sheets; Force Mapping mode; binding frequency and unbinding force; pulling speeds from 1 to 20 µm/s and modified Bells equation for the bond lifetime; 5 mM EGTA for 1 h lowered the binding frequency
Conditions: remark: other sources report otherwise

- bond lifetime: 0.12 s
B1: recombinant Fc-construct of the Dsg2 extracellular domain, Q14126 50-609 (Fc fusion)
chain: AWITAPVALREGEDLSKKNPIAKIHSDLAEERGLKITYKYTGKGITEPPFGIFVFNKDTGELNVTSILDREETPFFLLTGYALDARGNNVEKPLELRIKVLDINDNEPVFTQDVFVGSVEELSAAHTLVMKINATDADEPNTLNSKISYRIVSLEPAYPPVFYLNKDTGEIYTTSVTLDREEHSSYTLTVEARDGNGEVTDKPVKQAQVQIRILDVNDNIPVVENKVLEGMVEENQVNVEVTRIKVFDADEIGSDNWLANFTFASGNEGGYFHIETDAQTNEGIVTLIKEVDYEEMKNLDFSVIVANKAAFHKSIRSKYKPTPIPIKVKVKNVKEGIHFKSSVISIYVSESMDRSSKGQIIGNFQAFDEDTGLPAHARYVKLEDRDNWISVDSVTSEIKLAKLPDFESRYVQNGTYTVKIVAISEDYPRKTITGTVLINVEDINDNCPTLIEPVQTICHDAEYVNVTAEDLDGHPNSGPFSFSVIDKPPGMAEKWKIARQESTSVLLQQSEKKLGRSEIQFLISDNQGFSCPEKQVLTLTVCECLHGSGCREAQHDSYVG
